Residue numbers refer to the chain shown, from its start. In names and notes the source's numbering stands.
B1: 2F9 VHH-Fc (antibody, human IgG1, V domains shown)
VH: QVQLVESGGGVVQPGRSLRLSCAASGGPFMSYAMGWFRQAPGKEREFVAAIRWSGISTFYADSVKGRFTISRDNSKNTLYLQMNSLRAEDTAVYYCAAAQTIVTVPENYEFDYWGQGTQVTVSS
B2: Humanized 10A4 GLEF-N2S VHH-Fc (antibody, human IgG1, V domains shown)
VH: B1 VH with Q1E, V11L, R16G, F37V, E44G, R45L, F111Y, D112H
B3: 3D5 VHH-Fc (antibody, human IgG1, V domains shown)
VH: B1 VH with I56H, V103S
B4: Humanized 10A4 GLEF VHH-Fc (antibody, human IgG1, V domains shown)
VH: B1 VH with Q1E, V11L, R16G, F37V, E44G, R45L, S54N, F111Y, D112H
B5: 1F6 VHH-Fc (antibody, human IgG1, V domains shown)
VH: B1 VH with I56K, N108S
B6: 1H2 VHH-Fc (antibody, human IgG1, V domains shown)
VH: B1 VH with I56L, Q100P
B7: 1G12 VHH-Fc (antibody, human IgG1, V domains shown)
VH: B1 VH with I56L, E110N
B8: 5G10 VHH-Fc (antibody, human IgG1, V domains shown)
VH: B1 VH with I56A
B9: 5D8 VHH-Fc (antibody, human IgG1, V domains shown)
VH: B1 VH with I56Q, E107S
B10: 1E4 VHH-Fc (antibody, human IgG1, V domains shown)
VH: B1 VH with S54N
B11: 10A4 VHH-Fc (chimeric bivalent antibody) (antibody, human IgG1, V domains shown)
VH: QVKLEESGGGLVMAGGSLRLSCAASGGPFMSYAMGWFRQAPGKEREFVAAIRWNGISTFYADSVKGRFTVSRDNGKNMAFLQMNSLKPEDTAVYYCAAAQTIVTVPENYEYHYWGQGTQVTVSS

Tests used:
Assay in all cases: cell-based or functional assay
[1] = target: T1, human PDL1 stably expressed on CHO cells (human, UniProt Q9NZQ7 19-290)
T1 sequence (Q9NZQ7 19-290 limits assumed): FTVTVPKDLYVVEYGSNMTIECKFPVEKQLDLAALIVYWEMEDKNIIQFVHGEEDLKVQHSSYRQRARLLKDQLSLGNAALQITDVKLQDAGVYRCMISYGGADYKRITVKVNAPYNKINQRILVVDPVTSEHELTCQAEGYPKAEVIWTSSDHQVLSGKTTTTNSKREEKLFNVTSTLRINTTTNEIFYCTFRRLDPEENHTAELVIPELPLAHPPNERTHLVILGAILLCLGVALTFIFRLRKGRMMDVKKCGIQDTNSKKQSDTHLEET

[2] = target: T1, human PDL1 stably expressed on CHO cells; remark: listed apart in the source
[3] = target: T1, human PDL1 stably expressed on CHO cells; remark: listed apart in the source
[4] = target: T1, human PDL1 stably expressed on CHO cells; remark: listed apart in the source

Row | Binder | EC50 (read off the curve); luminescence (RLU) of the NFAT reporter, PDL1 Blockade assay (CHO-PDL1) [top panel] [1] [nM] | EC50 (read off the curve); luminescence (RLU) of the NFAT reporter, PDL1 Blockade assay (CHO-PDL1) [middle panel] [1] [nM] | also measured
1 | B1 | ~2 | – | –
2 | B2 | – | – | EC50; NFAT luciferase reporter (RLU), whole cell PDL1/PD1 blocking assay [2]: 7.37 nM; EC50; NFAT luciferase reporter (RLU), whole cell PDL1/PD1 blocking assay; printed as 10A4 GLEF-N2S [3]: 0.824 nM; EC50 (read off the curve); luminescence (RLU) of the NFAT reporter, PDL1 Blockade assay (CHO-PDL1) [bottom panel] [1]: ~2 nM
3 | B3 | – | ~1 | –
4 | B4 | – | – | EC50; NFAT luciferase reporter (RLU), whole cell PDL1/PD1 blocking assay [2]: 8.3 nM
5 | B5 | ~2 | – | –
6 | B6 | ~2 | – | –
7 | B7 | – | ~1 | –
8 | B8 | – | ~2 | –
9 | B9 | – | ~2 | –
10 | B10 | ~2 | – | –
11 | B11 | – | ~1 | EC50; NFAT luciferase reporter (RLU), CHO cells with human PDL1 co-incubated with Jurkat cells with human PD1 and NFAT reporter, blocking of PDL1/PD1 [4]: 0.242 nM; EC50; NFAT luciferase reporter (RLU), whole cell PDL1/PD1 blocking assay; printed as 10A4 Parental [2]: 3.79 nM

Reference: US20250320297A1 (SHANGHAI HENLIUS BIOTECH, published 2025)
